Test results taken from patent US20120082682A1 (GlaxoSmithKline, published 2012).
Values belong to the binder of their own block, whether it stands above or below them.

What was measured:
[1] = target: T1, human IL-13 (recombinant E. coli-expressed) (human, UniProt P35225 35-146); test: cell-based or functional assay
[2] = target: T1, human IL-13 (recombinant E. …); test: Biacore T100 SPR, Protein A capture (CM5), 1:1 fit; paragraph 260 calls Table 21 IL4, the values match IL13 (tables seem swapped)
Description: (§1) Protein A was immobilised on a CM5 chip by primary amine coupling; this surface was used as a capture surface for the antibody molecules to be tested. […] Regeneration the Protein A surface was with 50 mM NaOH. The assay was run at 25° C. using HBS-EP as running buffer. The data was fitted to 1:1 model inherent to the Biacore T100 analysis software.

[3] = target: T2, human IL-4 (recombinant E. coli-expressed) (human, UniProt P05112 25-153); test: direct binding ELISA, plate coated with 5 ug/ml human IL-4, anti-human kappa light chain-HRP detection, absorbance at 490 nm
T2 sequence (looked up): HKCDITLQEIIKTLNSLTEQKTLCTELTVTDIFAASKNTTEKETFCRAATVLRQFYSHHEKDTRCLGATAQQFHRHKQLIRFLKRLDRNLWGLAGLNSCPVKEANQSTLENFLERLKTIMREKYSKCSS
Description: 96-well high binding plates were coated with 5 μg/ml human IL-4 (made at GSK) in NaHCO₃ and stored overnight at 4° C. The plates were washed twice with Tris-Buffered Saline with 0.05% of Tween-20 (TBST). 100 μL of blocking solution (1% BSA in TBST buffer) was added in each well and the plates were incubated for at least one hour at room temperature. The mAbdAbs were successively diluted across the plates in blocking solution. After one hour incubation, the plates were washed three times. Goat anti-human kappa light chain specific peroxidase conjugated antibody (Sigma A7164) was diluted in blocking solution to 1 μg/mL and 50 μL was added to each well. The plates were incubated for one hour. After another three washing steps, 50 μl of OPD (o-phenylenediamine dihydrochloride) SigmaFast substrate solution was added to each well and the reaction was stopped after about 5 minutes by addition of 25 μL of 3M sulphuric acid. Absorbance was read at 490 nm using the VersaMax Tunable Microplate Reader (Molecular Devices) using a basic endpoint protocol.

[4] = target: T2, human IL-4 (recombinant E. …); test: Biacore T100 SPR, Protein A capture (CM5), human IL4 analyte, 1:1 fit; footnote: impossible on-rate
Description: Protein A was immobilised on a CM5 chip by primary amine coupling; this surface was used as a capture surface for the antibody molecules to be tested.
All binding curves were double referenced with a 0 nM injection (i.e. buffer alone). Regeneration of the Protein A surface was with 50 mM NaOH. The assay was run at 25° C. using HBS-EP as running buffer. The data was fitted to 1:1 model inherent to the Biacore T100 analysis software.

[5] = target: T2, human IL-4 (recombinant E. …); test: Biacore T100 SPR, Protein A capture (C1 chip), human IL4 analyte, 1:1 fit; on-rate beyond the sensitivity of Biacore (footnote)
Description: as §1, with “Cl” for “CM5”, “100” for “50”, “Phosphoric acid.” for “NaOH.”

[6] = target: T1, human IL-13 (recombinant E. …); test: cell-based or functional assay; remark: listed apart in the source
[7] = target: T1, human IL-13 (recombinant E. …); test: Biacore T100 SPR, purified mAb captured on anti-human IgG, IL13 analyte, 1:1 fit
Source text: (§2) Table 1 details the overall affinities (equilibrium dissociation constant KD) for the selected constructs from the ProteOn screen and the T100 run

[8] = target: T1, human IL-13 (recombinant E. …); test: as above; remark: listed apart in the source
Source text: as §2

[9] = target: T1, human IL-13 (recombinant E. …); test: Biacore T100 SPR, mAb (supernatant) captured on anti-human IgG, IL13 analyte, 1:1 fit
Source text: as §2

[10] = target: T1, human IL-13 (recombinant E. …); test: ProteOn XPR36 SPR, mAb (supernatant) captured on anti-human IgG, IL13 analyte, 1:1 fit
Description: The initial screen of CDRH3 mutants was carried out on the ProteOn XPR36 (Biorad). […] 3M MgCl₂ was used to regenerate the capture surface, removing the bound CDRH3 mutant antibodies ready for another cycle of capture and analyte injection. The data was fitted to the 1:1 model using the software inherent to the machine.

[11] = target: T2, human IL-4 (recombinant E. …); test: cell-based or functional assay

T1 sequence (P35225 other isoform, or with tags, fused parts or gaps limits assumed): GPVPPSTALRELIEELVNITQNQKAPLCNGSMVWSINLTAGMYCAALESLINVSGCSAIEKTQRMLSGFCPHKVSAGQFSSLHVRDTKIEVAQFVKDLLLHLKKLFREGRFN

B5: BPC1086 (bispecific antibody, human IgG1, kappa)
heavy: not shown
light: DIVMTQSPLSLPVTPGEPASISCRSSQNIVHINGNTYLEWYLQKPGQSPRLLIYKISDRFSGVPDRFSGSGSGTDFTLKISRVEADDVGIYYCFQGSHVPWTFGQGTKLEIKRTVAAPSVFIFPPSDEQLKSGTASVVCLLNNFYPREAKVQWKVDNALQSGNSQESVTEQDSKDSTYSLSSTLTLSKADYEKHKVYACEVTHQGLSSPVTKSFNRGEC
notes: also called 829H-GS(TVAAPSGS)3-154 (89Q)
Kd [2]: 0.051 nM
koff [2]: 6.57e-05 s⁻¹
kon [2]: 1.28e+06 M⁻¹ s⁻¹
EC50 (read off the curve) [3]: ~4 nM

B6: BPC1115 (bispecific antibody, human IgG1, kappa)
heavy: not shown
light: DIVMTQSPLSLPVTPGEPASISCRSSQNIVHINGNTYLEWYLQKPGQSPRLLIYKISDRFSGVPDRFSGSGSGTDFTLKISRVEADDVGIYYCFQGSHVPWTFGQGTKLEIKRTVAAPSVFIFPPSDEQLKSGTASVVCLLNNFYPREAKVQWKVDNALQSGNSQESVTEQDSKDSTYSLSSTLTLSKADYEKHKVYACEVTHQGLSSPVTKSFNRGEC
notes: mAbdAb; dAb Kabat 89 Y; also called 829H-(TVAAPS)2GS-154 (89Y)
Kd [4]: 2.29 nM
koff [4]: 0.329 s⁻¹
kon [4]: 1.44e+08 M⁻¹ s⁻¹

B8: A1Y100B AlaL1 (antibody, human IgG1, kappa, V domains shown)
VH: QVQLVQSGAEVKKPGSSVKVSCKASGFYIKDTYMHWVRQAPGQGLEWMGTIDPANGNTKYVPKFQGRVTITADESTSTAYMELSSLRSEDTAVYYCARSIYDDYHADDYYAMDYWGQGTLVTVSS
VL: DIVMTQSPLSLPVTPGEPASISCRSSQNIVHINGNTYLEWYLQKPGQSPRLLIYKISDRFSGVPDRFSGSGSGTDFTLKISRVEADDVGIYYCFQGSHVPWTFGQGTKLEIKR
notes: CDRH3 variant of A1L1
ND50 (nM), TF-1 cell proliferation bioassay [6]: 0.92 nM
Kd [7]: 0.031 nM
koff [7]: 3e-05 s⁻¹
kon [7]: 960000 M⁻¹ s⁻¹
Kd [8]: 0.032 nM
koff [8]: 2.58e-05 s⁻¹
kon [8]: 810000 M⁻¹ s⁻¹
Kd [9]: 0.083 nM
Kd [10]: 0.075 nM

B9: A1Y100B TrpL1 (antibody, human IgG1, kappa, V domains shown)
VH: QVQLVQSGAEVKKPGSSVKVSCKASGFYIKDTYMHWVRQAPGQGLEWMGTIDPANGNTKYVPKFQGRVTITADESTSTAYMELSSLRSEDTAVYYCARSIYDDYHWDDYYAMDYWGQGTLVTVSS
VL: DIVMTQSPLSLPVTPGEPASISCRSSQNIVHINGNTYLEWYLQKPGQSPRLLIYKISDRFSGVPDRFSGSGSGTDFTLKISRVEADDVGIYYCFQGSHVPWTFGQGTKLEIKR
notes: CDRH3 variant of A1L1
ND50 (nM), TF-1 cell proliferation bioassay [6]: 1.25 nM
Kd [7]: 0.063 nM
koff [7]: 0.000163 s⁻¹
kon [7]: 2.57e+06 M⁻¹ s⁻¹
Kd [8]: 0.053 nM
koff [8]: 0.000125 s⁻¹
kon [8]: 2.38e+06 M⁻¹ s⁻¹
Kd [9]: 0.095 nM
Kd [10]: 0.068 nM

B10: A1Y100B IleL1 (antibody, human IgG1, kappa, V domains shown)
VH: QVQLVQSGAEVKKPGSSVKVSCKASGFYIKDTYMHWVRQAPGQGLEWMGTIDPANGNTKYVPKFQGRVTITADESTSTAYMELSSLRSEDTAVYYCARSIYDDYHIDDYYAMDYWGQGTLVTVSS
VL: DIVMTQSPLSLPVTPGEPASISCRSSQNIVHINGNTYLEWYLQKPGQSPRLLIYKISDRFSGVPDRFSGSGSGTDFTLKISRVEADDVGIYYCFQGSHVPWTFGQGTKLEIKR
notes: CDRH3 variant of A1L1
ND50 (nM), TF-1 cell proliferation bioassay [6]: 1.1 nM
Kd [7]: 0.049 nM
koff [7]: 5.58e-05 s⁻¹
kon [7]: 1.15e+06 M⁻¹ s⁻¹
Kd [8]: 0.043 nM
koff [8]: 4.21e-05 s⁻¹
kon [8]: 989000 M⁻¹ s⁻¹
Kd [9]: 0.073 nM
Kd [10]: 0.075 nM

Continued, values first:

ND50 human IL-13, TF-1 cell proliferation bioassay [1]: 0.553 nM
B1: BPC1624 (bispecific antibody, human IgG1, kappa)
heavy: not shown
light: DIVMTQSPLSLPVTPGEPASISCRSSQNIVHINGNTYLEWYLQKPGQSPRLLIYKISDRFSGVPDRFSGSGSGTDFTLKISRVEADDVGIYYCFQGSHVPWTFGQGTKLEIKRTVAAPSVFIFPPSDEQLKSGTASVVCLLNNFYPREAKVQWKVDNALQSGNSQESVTEQDSKDSTYSLSSTLTLSKADYEKHKVYACEVTHQGLSSPVTKSFNRGEC

ND50 human IL-13, TF-1 cell proliferation bioassay [1]: 0.681 nM
B2: BPC1626 (bispecific antibody, human IgG1, kappa)
heavy: not shown
light: DIVMTQSPLSLPVTPGEPASISCRSSQNIVHINGNTYLEWYLQKPGQSPRLLIYKISDRFSGVPDRFSGSGSGTDFTLKISRVEADDVGIYYCFQGSHVPWTFGQGTKLEIKRTVAAPSVFIFPPSDEQLKSGTASVVCLLNNFYPREAKVQWKVDNALQSGNSQESVTEQDSKDSTYSLSSTLTLSKADYEKHKVYACEVTHQGLSSPVTKSFNRGEC

ND50 human IL-13, TF-1 cell proliferation bioassay [1]: 0.542 nM
B3: BPC1625 (bispecific antibody, human IgG1, kappa)
heavy: not shown
light: DIVMTQSPLSLPVTPGEPASISCRSSQNIVHINGNTYLEWYLQKPGQSPRLLIYKISDRFSGVPDRFSGSGSGTDFTLKISRVEADDVGIYYCFQGSHVPWTFGQGTKLEIKRTVAAPSVFIFPPSDEQLKSGTASVVCLLNNFYPREAKVQWKVDNALQSGNSQESVTEQDSKDSTYSLSSTLTLSKADYEKHKVYACEVTHQGLSSPVTKSFNRGEC

ND50 human IL-13, TF-1 cell proliferation bioassay [1]: 0.615 nM
B4: BPC1627 (bispecific antibody, human IgG1, kappa)
heavy: not shown
light: DIVMTQSPLSLPVTPGEPASISCRSSQNIVHINGNTYLEWYLQKPGQSPRLLIYKISDRFSGVPDRFSGSGSGTDFTLKISRVEADDVGIYYCFQGSHVPWTFGQGTKLEIKRTVAAPSVFIFPPSDEQLKSGTASVVCLLNNFYPREAKVQWKVDNALQSGNSQESVTEQDSKDSTYSLSSTLTLSKADYEKHKVYACEVTHQGLSSPVTKSFNRGEC

Kd [5]: 0.01 nM
B7: BPC2230 (bispecific antibody, human IgG1, kappa)
heavy: not shown
light: DIVMTQSPLSLPVTPGEPASISCRSSQNIVHINGNTYLEWYLQKPGQSPRLLIYKISDRFSGVPDRFSGSGSGTDFTLKISRVEADDVGIYYCFQGSHVPWTFGQGTKLEIKRTVAAPSVFIFPPSDEQLKSGTASVVCLLNNFYPREAKVQWKVDNALQSGNSQESVTEQDSKDSTYSLSSTLTLSKADYEKHKVYACEVTHQGLSSPVTKSFNRGEC
notes: mAbdAb with the original CDRH3 and the unmutated DOM9-155-154 dAb

Mean ND50 value (nM), TF-1 cell proliferation bioassay [11]: 0.98 nM
B11: DOM9-155-154 (other)
VL: DIQMTQSPSSLSASVGDRVTITCRASRPISDWLHWYQQKPGKAPKLLIAWASSLQGGVPSRFSGSGSGTDFTLTISSLQPEDFATYYCLQEGWGPPTFGQGTKVEIKR
